{"source": "paper PMC6769930", "about": "“Endoglin Protein Interactome Profiling Identifies TRIM21 and Galectin-3 as New Binding Partners” (Cells, 2019)", "data": [{"target": "T1, recombinant human soluble endoglin (sEng; Glu26-Gly586) (human, UniProt P17813 26-586)", "T1 construct": "human endoglin (CD105), extracellular domain, Glu26-Gly586; The same bought protein was the probe of the array and the analyte of the BLI; also called recombinant human endoglin/CD105 protein; source: bought: R&D Systems (1097-EN), purified recombinant", "T1 sequence (looked up)": "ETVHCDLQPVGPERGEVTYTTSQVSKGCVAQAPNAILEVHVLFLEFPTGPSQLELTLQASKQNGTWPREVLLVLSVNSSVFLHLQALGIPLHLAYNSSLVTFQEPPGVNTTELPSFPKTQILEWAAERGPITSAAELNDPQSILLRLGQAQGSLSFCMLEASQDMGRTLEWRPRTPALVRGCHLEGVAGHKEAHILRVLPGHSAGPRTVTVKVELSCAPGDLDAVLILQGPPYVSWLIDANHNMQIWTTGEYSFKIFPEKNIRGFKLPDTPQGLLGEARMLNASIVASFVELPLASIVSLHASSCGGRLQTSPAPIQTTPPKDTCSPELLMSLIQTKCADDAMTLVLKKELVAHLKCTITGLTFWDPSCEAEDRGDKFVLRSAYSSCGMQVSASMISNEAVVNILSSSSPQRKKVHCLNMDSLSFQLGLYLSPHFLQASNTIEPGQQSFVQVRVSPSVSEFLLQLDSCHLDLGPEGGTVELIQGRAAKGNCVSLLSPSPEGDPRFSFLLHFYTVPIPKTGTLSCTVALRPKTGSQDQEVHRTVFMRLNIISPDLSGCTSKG", "assay": "peptide or protein array; ProtoArray human protein Microarray v5.0 (over 9000 human proteins arrayed) probed with recombinant sEng in two replicates; detection with anti-endoglin mAb SN6h and HRP secondary antibody; hits with Z-score >=2.0 in both arrays", "details": "both partners purified", "values": [{"binder": "RAD51 associated protein 1 (RAD51AP1) (natural protein, human, UniProt Q96B01-2 1-335, looked up, human RAD51 associated protein 1; source: bought: ProtoArray human protein Microarray v5.0 (Life Technologies), individually purified and arrayed) MVRPVRHKKPVNYSQFDHSDSDDDFVSATVPLNKKSRTAPKELKQDKPKPNLNNLRKEEIPVQEKTPKKRMALDDKLYQRDLEVALALSVKELPTVTTNVQNSQDKSIEKHGSSKIETMNKSPHISNCSVASDYLDLDKITVEDDVGGVQGKRKAASKAAAQQRKILLEGSDGDSANDTEPDFAPGEDSEDDSDFCESEDNDEDFSMRKSKVKEIKKKEVKVKSPVEKKEKKSKSKCNALVTSVDSAPAAVKSESQSLPKKVSLSSDTTRKPLEIRSPSAESKKPKWVPPAASGGSRSSSSPLVVVSVKSPNQSLRLGLSRLARVKPLHPNATST", "binding result": "binds"}, {"binder": "Potassium voltage-gated channel, shaker-related subfamily, beta member 1 (KCNAB1), transcript variant 1 (natural protein, human, UniProt Q14722-1 1-419, looked up, human KCNAB1, transcript variant 1; source: bought: ProtoArray human protein Microarray v5.0 (Life Technologies), individually purified and arrayed) MLAARTGAAGSQISEENTKLRRQSGFSVAGKDKSPKKASENAKDSSLSPSGESQLRARQLALLREVEMNWYLKLCDLSSEHTTVCTTGMPHRNLGKSGLRVSCLGLGTWVTFGGQISDEVAERLMTIAYESGVNLFDTAEVYAAGKAEVILGSIIKKKGWRRSSLVITTKLYWGGKAETERGLSRKHIIEGLKGSLQRLQLEYVDVVFANRPDSNTPMEEIVRAMTHVINQGMAMYWGTSRWSAMEIMEAYSVARQFNMIPPVCEQAEYHLFQREKVEVQLPELYHKIGVGAMTWSPLACGIISGKYGNGVPESSRASLKCYQWLKERIVSEEGRKQQNKLKDLSPIAERLGCTLPQLAVAWCLRNEGVSSVLLGSSTPEQLIENLGAIQVLPKMTSHVVNEIDNILRNKPYSKKDYRS", "binding result": "binds"}, {"binder": "Family with sequence similarity 39, member B (FAM39B) (natural protein, human, UniProt Q6VEQ5 1-465, looked up, human FAM39B; source: bought: ProtoArray human protein Microarray v5.0 (Life Technologies), individually purified and arrayed) MTPVRMQHSLAGQTYAVPLIQPDLRREEAVQQMADALQYLQKVSGDIFSRISQQVEQSRSQVQAIGEKVSLAQAKIEKIKGSKKAIKVFSSAKYPAPERLQEYGSIFTGAQDPGLQRRPRHRIQSKHRPLDERALQEKLKDFPVCVSTKPEPEDDAEEGLGGLPSNISSVSSLLLFNTTENLYKKYVFLDPLAGAVTKTHVMLGAETEEKLFDAPLSISKREQLEQQVPENYFYVPDLGQVPEIDVPSYLPDLPGIANDLMYIADLGPGIAPSAPGTIPELPTFHTEVAEPLKVDLQDGVLTPPPPPPPPPPAPEVLASAPPLPPSTAAPVGQGARQDDSSSSASPSVQGAPREVVDPSGGRATLLESIRQAGGIGKAKLRSMKERKLEKKKQKEQEQVRATSQGGHLMSDLFNKLVMRRKGISGKGPGAGEGPGGAFARVSDSIPPLPPPQQPQAEEDEDDWES", "binding result": "binds"}, {"binder": "Coiled-coil domain containing 55 (CCDC55), transcript variant 1 (natural protein, human, UniProt Q9H0G5 1-558, looked up, human CCDC55, transcript variant 1; source: bought: ProtoArray human protein Microarray v5.0 (Life Technologies), individually purified and arrayed) MAIPGRQYGLILPKKTQQLHPVLQKPSVFGNDSDDDDETSVSESLQREAAKKQAMKQTKLEIQKALAEDATVYEYDSIYDEMQKKKEENNPKLLLGKDRKPKYIHNLLKAVEIRKKEQEKRMEKKIQREREMEKGEFDDKEAFVTSAYKKKLQERAEEEEREKRAAALEACLDVTKQKDLSGFYRHLLNQAVGEEEVPKCSFREARSGIKEEKSRGFSNEVSSKNRIPQEKCILQTDVKVEENPDADSDFDAKSSADDEIEETRVNCRREKVIETPENDFKHHRSQNHSRSPSEERGHSTRHHTKGSRTSRGHEKREDQHQQKQSRDQENHYTDRDYRKERDSHRHREASHRDSHWKRHEQEDKPRARDQRERSDRVWKREKDREKYSQREQERDRQQNDQNRPSEKGEKEEKSKAKEEHMKVRKERYENNDKYRDREKREVGVQSSERNQDRKESSPNSRAKDKFLDQERSNKMRNMAKDKERNQEKPSNSESSLGAKHRLTEEGQEKGKEQERPPEAVSKFAKRNNEETVMSARDRYLARQMARVNAKTYIEKEDD", "binding result": "binds"}, {"binder": "Cortactin (CTTN), transcript variant 2 (natural protein, human, UniProt Q14247-3 1-513, looked up, source: bought: ProtoArray human protein Microarray v5.0 (Life Technologies), individually purified and arrayed) MWKASAGHAVSIAQDDAGADDWETDPDFVNDVSEKEQRWGAKTVQGSGHQEHINIHKLRENVFQEHQTLKEKELETGPKASHGYGGKFGVEQDRMDKSAVGHEYQSKLSKHCSQVDSVRGFGGKFGVQMDRVDQSAVGFEYQGKTEKHASQKDYSSGFGGKYGVQADRVDKSAVGFDYQGKTEKHESQRDYSKGFGGKYGIDKDKVDKSAVGFEYQGKTEKHESQKDYVKGFGGKFGVQTDRQDKCALGWDHQEKLQLHESQKDYSKGFGGKYGVQKDRMDKNASTFEDVTQVSSAYQKTVPVEAVTSKTSNIRANFENLAKEKEQEDRRKAEAERAQRMAKERQEQEEARRKLEEQARAKTQTPPVSPAPQPTEERLPSSPVYEDAASFKAELSYRGPVSGTEPEPVYSMEAADYREASSQQGLAYATEAVYESAEAPGHYPAEDSTYDEYENDLGITAVALYDYQAAGDDEISFDPDDIITNIEMIDDGWWRGVCKGRYGLFPANYVELRQ", "binding result": "binds"}, {"binder": "Origin recognition complex, subunit 6 like (yeast) (ORC6L) (natural protein, human, UniProt Q9Y5N6 1-252, looked up, human origin recognition complex subunit 6; source: bought: ProtoArray human protein Microarray v5.0 (Life Technologies), individually purified and arrayed) MGSELIGRLAPRLGLAEPDMLRKAEEYLRLSRVKCVGLSARTTETSSAVMCLDLAASWMKCPLDRAYLIKLSGLNKETYQSCLKSFECLLGLNSNIGIRDLAVQFSCIEAVNMASKILKSYESSLPQTQQVDLDLSRPLFTSAALLSACKILKLKVDKNKMVATSGVKKAIFDRLCKQLEKIGQQVDREPGDVATPPRKRKKIVVEAPAKEMEKVEEMPHKPQKDEDLTQDYEEWKRKILENAASAQKATAE", "binding result": "binds"}, {"binder": "Spliceosome-associated protein CWC15 homolog (HSPC148) (natural protein, human, UniProt Q9P013 1-229, looked up, human spliceosome-associated protein CWC15 homolog; source: bought: ProtoArray human protein Microarray v5.0 (Life Technologies), individually purified and arrayed) MTTAARPTFEPARGGRGKGEGDLSQLSKQYSSRDLPSHTKIKYRQTTQDAPEEVRNRDFRRELEERERAAAREKNRDRPTREHTTSSSVSKKPRLDQIPAANLDADDPLTDEEDEDFEEESDDDDTAALLAELEKIKKERAEEQARKEQEQKAEEERIRMENILSGNPLLNLTGPSQPQANFKVKRRWDDDVVFKNCAKGVDDQKKDKRFVNDTLRSEFHKKFMEKYIK", "binding result": "binds"}, {"binder": "HIRA interacting protein 3 (HIRIP3) (natural protein, human, UniProt Q9BW71-1 1-556, looked up, source: bought: ProtoArray human protein Microarray v5.0 (Life Technologies), individually purified and arrayed) MAREKEMQEFTRSFFRGRPDLSTLTHSIVRRRYLAHSGRSHLEPEEKQALKRLVEEELLKMQVDEAASREDKLDLTKKGKRPPTPCSDPERKRFRFNSESESGSEASSPDYFGPPAKNGVAAEVSPAKEENPRRASKAVEESSDEERQRDLPAQRGEESSEEEEKGYKGKTRKKPVVKKQAPGKASVSRKQAREESEESEAEPVQRTAKKVEGNKGTKSLKESEQESEEEILAQKKEQREEEVEEEEKEEDEEKGDWKPRTRSNGRRKSAREERSCKQKSQAKRLLGDSDSEEEQKEAASSGDDSGRDREPPVQRKSEDRTQLKGGKRLSGSSEDEEDSGKGEPTAKGSRKMARLGSTSGEESDLEREVSDSEAGGGPQGERKNRSSKKSSRKGRTRSSSSSSDGSPEAKGGKAGSGRRGEDHPAVMRLKRYIRACGAHRNYKKLLGSCCSHKERLSILRAELEALGMKGTPSLGKCRALKEQREEAAEVASLDVANIISGSGRPRRRTAWNPLGEAAPPGELYRRTLDSDEERPRPAPPDWSHMRGIISSDGESN", "binding result": "binds"}, {"binder": "Family with sequence similarity 126, member B (FAM126B) (natural protein, human, UniProt Q8IXS8 1-530, looked up, human FAM126B; source: bought: ProtoArray human protein Microarray v5.0 (Life Technologies), individually purified and arrayed) MLGTDRCVVEEWLSEFKALPDTQITSYAATLHRKKTLVPALYKVIQDSNNELLEPVCHQLFELYRSSEVRLKRFTLQFLPELMWVYLRLTVSRDRQSNGCIEALLLGIYNLEIADKDGNNKVLSFTIPSLSKPSIYHEPSTIGSMALTEGALCQHDLIRVVYSDLHPQRETFTAQNRFEVLSFLMLCYNSAIVYMPASSYQSLCRMGSRVCVSGFPRQHEKHWKELCGRIVLDPEFMVQLLTGVYYAMYNGQWDLGQEVLDDIIYRAQLELFSQPLLVANAMKNSLPFDAPDSTQEGQKVLKVEVTPTVPRISRTAITTASIRRHRWRREGAEGVNGGEESVNLNDADEGFSSGASLSSQPIGTKPSSSSQRGSLRKVATGRSAKDKETASAIKSSESPRDSVVRKQYVQQPTDLSVDSVELTPMKKHLSLPAGQVVPKINSLSLIRTASASSSKSFDYVNGSQASTSIGVGTEGGTNLAANNANRYSTVSLQEDRLGQAGEGKELLSPGAPLTKQSRSPSFNMQLISQV", "binding result": "binds"}]}]}
